Assay results: paper PMC13186709

What was measured:
[1] = molecular target: T1, Egalitarian (Egl);Bicaudal D (BicD) (Drosophila melanogaster;Drosophila …, UniProt Q9W1K4;P16568 1-1004;1-782, |); experiment: MST; prep 4; MST: 1 nM Cy5-RNA in GF150 (25 mM HEPES pH 7.3, 150 mM KCl, 1 mM MgCl2, 0.1 mM Mg-ATP, 5 mM DTT, 10% glycerol) + 0.05% Tween-20, 15 min, room temperature; Egl-BicD conc. as 2:2 complex; conditions: protein: recombinant;recombinant; tags: C-terminal TEV-ZZ (cleaved);; chain copies: 2;2; label: 5'-Cy5; hairpin
[2] = molecular target: T1, Egalitarian (Egl);Bicaudal D (BicD); experiment: MST; MST: 1 nM Cy5-RNA in GF150 (25 mM HEPES pH 7.3, 150 mM KCl, 1 mM MgCl2, 0.1 mM Mg-ATP, 5 mM DTT, 10% glycerol) + 0.05% Tween-20, 15 min, room temperature; Egl-BicD conc. as 2:2 complex; conditions: protein: recombinant;recombinant, tags: C-terminal TEV-ZZ (cleaved);, chain copies: 2;2, label: 5'-Cy5
[3] = molecular target: T1, Egalitarian (Egl);Bicaudal D (BicD); experiment: MST; two experiments, different preps; MST: 1 nM Cy5-RNA in GF150 (25 mM HEPES pH 7.3, 150 mM KCl, 1 mM MgCl2, 0.1 mM Mg-ATP, 5 mM DTT, 10% glycerol) + 0.05% Tween-20, 15 min, room temperature; Egl-BicD conc. as 2:2 complex; conditions: protein: recombinant;recombinant; tags: C-terminal TEV-ZZ (cleaved);; chain copies: 2;2; label: 5'-Cy5; straight hairpin
[4] = molecular target: T1, Egalitarian (Egl);Bicaudal D (BicD); experiment: single-molecule motility; with human dynein and pig dynactin; single RNA per motile complex; MST: 1 nM Cy5-RNA in GF150 (25 mM HEPES pH 7.3, 150 mM KCl, 1 mM MgCl2, 0.1 mM Mg-ATP, 5 mM DTT, 10% glycerol) + 0.05% Tween-20, 15 min, room temperature; Egl-BicD conc. as 2:2 complex; conditions: protein: recombinant;recombinant; tags: C-terminal TEV-ZZ (cleaved);; chain copies: 2;2; label: Cy3- or Cy5-UTP; two hairpins

T1 sequence (chain, as listed by the source |, chain 1 of 2): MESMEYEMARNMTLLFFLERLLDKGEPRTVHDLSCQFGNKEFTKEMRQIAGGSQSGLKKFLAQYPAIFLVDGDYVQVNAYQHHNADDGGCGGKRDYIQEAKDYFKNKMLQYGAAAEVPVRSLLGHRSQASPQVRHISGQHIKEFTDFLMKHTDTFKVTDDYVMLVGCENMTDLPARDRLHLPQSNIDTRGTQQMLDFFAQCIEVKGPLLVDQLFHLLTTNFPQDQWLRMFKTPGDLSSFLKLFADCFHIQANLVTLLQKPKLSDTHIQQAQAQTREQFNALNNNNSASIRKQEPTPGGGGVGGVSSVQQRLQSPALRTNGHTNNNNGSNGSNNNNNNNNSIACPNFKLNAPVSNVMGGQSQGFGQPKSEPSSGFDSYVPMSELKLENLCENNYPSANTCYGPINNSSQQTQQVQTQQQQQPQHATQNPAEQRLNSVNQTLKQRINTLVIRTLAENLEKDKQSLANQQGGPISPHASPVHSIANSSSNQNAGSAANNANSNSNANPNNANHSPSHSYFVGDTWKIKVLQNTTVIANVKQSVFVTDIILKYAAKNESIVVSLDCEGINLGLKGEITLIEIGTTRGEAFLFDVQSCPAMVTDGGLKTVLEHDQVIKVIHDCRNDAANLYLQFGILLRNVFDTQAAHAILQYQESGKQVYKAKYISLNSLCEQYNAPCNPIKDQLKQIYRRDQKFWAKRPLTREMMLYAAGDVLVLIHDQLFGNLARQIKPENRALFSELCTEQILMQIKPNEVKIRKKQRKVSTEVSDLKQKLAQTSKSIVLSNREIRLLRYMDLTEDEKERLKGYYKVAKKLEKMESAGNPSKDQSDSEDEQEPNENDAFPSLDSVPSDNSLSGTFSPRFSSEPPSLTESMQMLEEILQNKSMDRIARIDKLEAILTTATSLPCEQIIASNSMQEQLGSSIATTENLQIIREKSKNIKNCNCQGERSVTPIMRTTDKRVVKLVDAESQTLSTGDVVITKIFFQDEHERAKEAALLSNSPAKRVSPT
T1 sequence (P16568 whole entry, chain 2 of 2): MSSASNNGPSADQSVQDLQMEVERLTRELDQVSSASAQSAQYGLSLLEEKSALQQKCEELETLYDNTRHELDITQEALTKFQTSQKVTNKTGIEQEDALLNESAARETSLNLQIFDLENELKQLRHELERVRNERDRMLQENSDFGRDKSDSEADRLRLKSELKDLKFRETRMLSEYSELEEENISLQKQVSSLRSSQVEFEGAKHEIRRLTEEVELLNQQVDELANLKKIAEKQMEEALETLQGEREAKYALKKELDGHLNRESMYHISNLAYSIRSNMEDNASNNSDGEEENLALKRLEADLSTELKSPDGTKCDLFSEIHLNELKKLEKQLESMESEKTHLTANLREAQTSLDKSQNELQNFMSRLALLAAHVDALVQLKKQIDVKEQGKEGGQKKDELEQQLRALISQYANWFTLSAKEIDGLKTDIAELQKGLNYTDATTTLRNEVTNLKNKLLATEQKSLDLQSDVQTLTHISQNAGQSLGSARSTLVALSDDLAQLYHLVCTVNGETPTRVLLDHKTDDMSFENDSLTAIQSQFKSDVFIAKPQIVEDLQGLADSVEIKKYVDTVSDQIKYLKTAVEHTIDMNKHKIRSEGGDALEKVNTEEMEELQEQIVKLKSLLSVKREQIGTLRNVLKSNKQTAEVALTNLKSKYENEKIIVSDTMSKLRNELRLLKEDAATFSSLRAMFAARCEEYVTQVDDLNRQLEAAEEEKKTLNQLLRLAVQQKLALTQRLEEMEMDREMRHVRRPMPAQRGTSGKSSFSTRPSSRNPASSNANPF

B1: TLS∆b (structured_RNA)
RNA: UUACACCACUUGAUUGUAUUUUUAAAUUAAUUCUUAAAAAUACAAUUAAGAUCACUCU
With B1 the Kd [1] was 2.8 ± 0.51 µM.

B2: TLS-2xGCED1 (structured_RNA)
RNA: UUACACCACUUGAGGGUAUUUUUAAAUUAAUUCUUAAAAACUACACCUUAAGAUCACUCU
B2 was tested, and the Kd ([2]; hairpin with 3'-strand bulges) was 0.376 ± 0.154 µM.

B3: TLS-GCED2 (structured_RNA)
RNA: UUACACCACUUGAUUGUAUUUUGAAAUUAAUUCUUCAAAACUACAAAUUAAGAUCACUCU
B3 gave a Kd ([2]; hairpin with 3'-strand bulges) of 0.425 ± 0.14 µM.

B4: TLS-2xGCED1+GCED2 (structured_RNA)
RNA: UUACACCACUUGAGGGUAUUUUGAAAUUAAUUCUUCAAAACUACACCUUAAGAUCACUCU
With B4 the Kd ([2]; hairpin with 3'-strand bulges) was 1.51 ± 0.21 µM.

B5: TLS-GCED1/ED2 (structured_RNA)
RNA: UUACACCACUUGAGUGUAUUUUGAAAUUAAUUCUUCAAAACUACAACUUAAGAUCACUCU
Binder B5 has a Kd ([2]; hairpin with 3'-strand bulges) of 4.11 ± 1.54 µM.

B6: TLS-CGED1/ED2 (structured_RNA)
RNA: UUACACCACUUGACUGUAUUUUCAAAUUAAUUCUUGAAAACUACAAGUUAAGAUCACUCU
Binder B6 has a Kd ([2]; hairpin with 3'-strand bulges) of 0.345 ± 0.034 µM.

B7: TLS-AUED1/ED2 (structured_RNA)
RNA: UUACACCACUUGAAUGUAUUUUAAAAUUAAUUCUUUAAAACUACAAUUUAAGAUCACUCU
With B7 the Kd ([2]; hairpin with 3'-strand bulges) was 0.746 ± 0.091 µM.

B8: KSE (structured_RNA)
RNA: AAACCCAAUUGAACAUAUAGUGGAAUUAUUAUUAUCAAUGGGGAAUAUUUAACCC
For B8, the Kd ([2]; hairpin) was 0.507 ± 0.093 µM.

B9: hSL1∆b (structured_RNA)
RNA: UGCGCGUAGACAUUUCACAUCAUUCGCCGGGAUUGGCAAAUGUUGUGAAGUGUUGCAAACAU
B9 was tested, and the Kd ([2]; hairpin) was 0.204 ± 0.036 µM.

B10: hSL2 (structured_RNA)
RNA: AACUUCGUUGGCUUAGUUUCCUGGCUUAUAUCCUGGAAACCCGUCGACGAGG
B10 showed a Kd ([2]; hairpin with bulges) of 0.603 ± 0.079 µM.

B11: bcdSLV (MST) (structured_RNA)
RNA: AAAAAUGUUUCUCUUGGGCGUAAUCUCAUACAAUGAUUACCCUUAAAGAUCGAACAUUU
B11 was tested, and the Kd ([2]; hairpin with bulges) was 0.231 ± 0.064 µM.

B12: GLS (MST) (structured_RNA)
RNA: AAAGUAAUUUUCGUGCUCUCAACAAUUGUCGCCGUCACAGAUUGUUGUUCGAGCCGAAUCUUACU
B12 gave a Kd ([2]; hairpin with bulges) of 0.039 ± 0.014 µM.

AAGGGACAAGCGCAAGGUCAUUCGCAAGAGUGGCCUUGCGCUUGUCCC (structured_RNA) [2NUE RNA]: no binding [3].

B13: TLS-KSE (structured_RNA)
RNA: GUCAAAGCUUACCUUGAUUGUAUUUUUAAAUUAAUUCUUAAAAACUACAAAUUAAGUUGCAAACAUGCGAAUCCUAAACUCGGUUCACAACUUCCCCAAUUGAACAUAUAGUGGAAUUAUUAUUAUCAAUGGGGAAUAUGCUAGC
B13: binds [4].
